According to publication doi:10.1101/634816:
Residue numbers refer to the chain shown, from its start. Like-named read-outs stand apart in the source and are kept apart here.

T1: AtARF5-DBD (Arabidopsis thaliana, UniProt P93024 1-390)
T1 sequence: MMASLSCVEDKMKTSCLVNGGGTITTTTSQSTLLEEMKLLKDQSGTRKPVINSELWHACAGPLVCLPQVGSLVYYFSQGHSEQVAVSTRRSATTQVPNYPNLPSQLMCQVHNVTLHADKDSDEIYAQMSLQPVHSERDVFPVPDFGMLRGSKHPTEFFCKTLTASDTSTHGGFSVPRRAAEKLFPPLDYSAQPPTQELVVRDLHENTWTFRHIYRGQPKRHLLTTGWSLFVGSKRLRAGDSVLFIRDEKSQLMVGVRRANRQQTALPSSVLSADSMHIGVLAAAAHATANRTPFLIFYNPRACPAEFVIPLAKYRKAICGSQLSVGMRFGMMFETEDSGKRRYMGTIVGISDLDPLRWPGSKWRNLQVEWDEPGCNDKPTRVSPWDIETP

B1: ER7-GG (dsDNA)
DNA 1: CCGGTAGGTTGTCGGCCAAAGGCCGACAACCGGTAGG
DNA 2: CCTACCGGTTGTCGGCCTTTGGCCGACAACCTACCGG
B2: ER7 (dsDNA)
DNA 1: B1 DNA 1 with G14T, G15C, C23G, C24A
DNA 2: B1 DNA 2 with G14T, G15C, C23G, C24A

How the values were obtained:
[1] = molecular target: T1, AtARF5-DBD; assay: Ni-NTA pull-down with SYBR Gold fluorescence
[2] = molecular target: T1, AtARF5-DBD; assay: Ni-NTA pull-down with SYBR Gold fluorescence; remark: listed apart in the source

Row | Binder | binding result [1] | binding result [2]
1 | B1 | binds | 
2 | B2 |  | binds
